{"source": "patent US20260209386A1", "about": "(MYTHIC THERAPEUTICS, published 2026)", "binders": {"B1": {"name": "MYT10911 (antibody, V domains shown)", "VH": "EVQLVESGGGLVQPGGSLRLSCTASGFSLSNYVMNWVRQAPGKGLEWVGIIDSSGSTYYASWAKGRFTISRDTSKNTVYLQMNSLRAEDTAVYFCHRGLYLWGQGTLVTVSS", "VL": "EIVMTQSPSTLSASVGDRVIITCQSSQSVYNNNLLAWYQQKPGKAPKLLIYYTSNLASGVPSRFSGSGSGAEFTLTISSLQPDDFATYYCQGGYNGNIYAFGQGTKLTVL", "notes": "MYT9345 variant, His at VH pos 96 (H3 01)"}, "B2": {"name": "MYT10916 (antibody, V domains shown)", "VH": "EVQLVESGGGLVQPGGSLRLSCTASGFSLSNYVMNWVRQAPGKGLEWVGIIDSSGSTYYASWAKGRFTISRDTSKNTVYLQMNSLRAEDTAVYFCARGLYHWGQGTLVTVSS", "VL": "EIVMTQSPSTLSASVGDRVIITCQSSQSVYNNNLLAWYQQKPGKAPKLLIYYTSNLASGVPSRFSGSGSGAEFTLTISSLQPDDFATYYCQGGYNGNIYAFGQGTKLTVL", "notes": "MYT9345 variant, His at VH pos 101 (H3 06)"}, "B3": {"name": "MYT10918 (antibody, V domains shown)", "VH": "EVQLVESGGGLVQPGGSLRLSCTASGFSLSNYVMNWVRQAPGKGLEWVGIIASSGSTYYASWAKGRFTISRDTSKNTVYLQMNSLRAEDTAVYFCARGLYLWGQGTLVTVSS", "VL": "EIVMTQSPSTLSASVGDRVIITCQSSQSVYNNNLLAWYQQKPGKAPKLLIYYTSNLASGVPSRFSGSGSGAEFTLTISSLQPDDFATYYCQGGYNGNIYAFGQGTKLTVL", "notes": "MYT9345 variant, Ala at VH pos 52 (H2 03)"}, "B4": {"name": "MYT10920 (antibody, V domains shown)", "VH": "EVQLVESGGGLVQPGGSLRLSCTASGFSLSNYVMNWVRQAPGKGLEWVGIIDSSGSTYYASWAKGRFTISRDTSKNTVYLQMNSLRAEDTAVYFCARGLYLWGQGTLVTVSS", "VL": "EIVMTQSPSTLSASVGDRVIITCQHSQSVYNNNLLAWYQQKPGKAPKLLIYYTSNLASGVPSRFSGSGSGAEFTLTISSLQPDDFATYYCQGGYNGNIYAFGQGTKLTVL", "notes": "MYT9345 variant, His at VL pos 25 (L1 02)"}, "B5": {"name": "MYT10925 (antibody, V domains shown)", "VH": "EVQLVESGGGLVQPGGSLRLSCTASGFSLSNYVMNWVRQAPGKGLEWVGIIDSSGSTYYASWAKGRFTISRDTSKNTVYLQMNSLRAEDTAVYFCARGLYLWGQGTLVTVSS", "VL": "EIVMTQSPSTLSASVGDRVIITCQSSQSVHNNNLLAWYQQKPGKAPKLLIYYTSNLASGVPSRFSGSGSGAEFTLTISSLQPDDFATYYCQGGYNGNIYAFGQGTKLTVL", "notes": "MYT9345 variant, His at VL pos 30 (L1 07)"}, "B6": {"name": "MYT10926 (antibody, V domains shown)", "VH": "EVQLVESGGGLVQPGGSLRLSCTASGFSLSNYVMNWVRQAPGKGLEWVGIIDSSGSTYYASWAKGRFTISRDTSKNTVYLQMNSLRAEDTAVYFCARGLYLWGQGTLVTVSS", "VL": "EIVMTQSPSTLSASVGDRVIITCQSSQSVYHNNLLAWYQQKPGKAPKLLIYYTSNLASGVPSRFSGSGSGAEFTLTISSLQPDDFATYYCQGGYNGNIYAFGQGTKLTVL", "notes": "MYT9345 variant, His at VL pos 31 (L1 08)"}, "B7": {"name": "MYT10927 (antibody, V domains shown)", "VH": "EVQLVESGGGLVQPGGSLRLSCTASGFSLSNYVMNWVRQAPGKGLEWVGIIDSSGSTYYASWAKGRFTISRDTSKNTVYLQMNSLRAEDTAVYFCARGLYLWGQGTLVTVSS", "VL": "EIVMTQSPSTLSASVGDRVIITCQSSQSVYNHNLLAWYQQKPGKAPKLLIYYTSNLASGVPSRFSGSGSGAEFTLTISSLQPDDFATYYCQGGYNGNIYAFGQGTKLTVL", "notes": "MYT9345 variant, His at VL pos 32 (L1 09)"}, "B8": {"name": "MYT10928 (antibody, V domains shown)", "VH": "EVQLVESGGGLVQPGGSLRLSCTASGFSLSNYVMNWVRQAPGKGLEWVGIIDSSGSTYYASWAKGRFTISRDTSKNTVYLQMNSLRAEDTAVYFCARGLYLWGQGTLVTVSS", "VL": "EIVMTQSPSTLSASVGDRVIITCQSSQSVYNNHLLAWYQQKPGKAPKLLIYYTSNLASGVPSRFSGSGSGAEFTLTISSLQPDDFATYYCQGGYNGNIYAFGQGTKLTVL", "notes": "MYT9345 variant, His at VL pos 33 (L1 10)"}, "B9": {"name": "MYT10930 (antibody, V domains shown)", "VH": "EVQLVESGGGLVQPGGSLRLSCTASGFSLSNYVMNWVRQAPGKGLEWVGIIDSSGSTYYASWAKGRFTISRDTSKNTVYLQMNSLRAEDTAVYFCARGLYLWGQGTLVTVSS", "VL": "EIVMTQSPSTLSASVGDRVIITCQSSQSVYNNNLHAWYQQKPGKAPKLLIYYTSNLASGVPSRFSGSGSGAEFTLTISSLQPDDFATYYCQGGYNGNIYAFGQGTKLTVL", "notes": "MYT9345 variant, His at VL pos 35 (L1 12)"}, "B10": {"name": "MYT10935 (antibody, V domains shown)", "VH": "EVQLVESGGGLVQPGGSLRLSCTASGFSLSNYVMNWVRQAPGKGLEWVGIIDSSGSTYYASWAKGRFTISRDTSKNTVYLQMNSLRAEDTAVYFCARGLYLWGQGTLVTVSS", "VL": "EIVMTQSPSTLSASVGDRVIITCQSSQSVYNNNLLAWYQQKPGKAPKLLIYYTSHLASGVPSRFSGSGSGAEFTLTISSLQPDDFATYYCQGGYNGNIYAFGQGTKLTVL", "notes": "MYT9345 variant, His at VL pos 55 (L2 04)"}, "B11": {"name": "MYT10936 (antibody, V domains shown)", "VH": "EVQLVESGGGLVQPGGSLRLSCTASGFSLSNYVMNWVRQAPGKGLEWVGIIDSSGSTYYASWAKGRFTISRDTSKNTVYLQMNSLRAEDTAVYFCARGLYLWGQGTLVTVSS", "VL": "EIVMTQSPSTLSASVGDRVIITCQSSQSVYNNNLLAWYQQKPGKAPKLLIYYTSNHASGVPSRFSGSGSGAEFTLTISSLQPDDFATYYCQGGYNGNIYAFGQGTKLTVL", "notes": "MYT9345 variant, His at VL pos 56 (L2 05)"}, "B12": {"name": "MYT10937 (antibody, V domains shown)", "VH": "EVQLVESGGGLVQPGGSLRLSCTASGFSLSNYVMNWVRQAPGKGLEWVGIIDSSGSTYYASWAKGRFTISRDTSKNTVYLQMNSLRAEDTAVYFCARGLYLWGQGTLVTVSS", "VL": "EIVMTQSPSTLSASVGDRVIITCQSSQSVYNNNLLAWYQQKPGKAPKLLIYYTSNLHSGVPSRFSGSGSGAEFTLTISSLQPDDFATYYCQGGYNGNIYAFGQGTKLTVL", "notes": "MYT9345 variant, His at VL pos 57 (L2 06)"}, "B13": {"name": "MYT10939 (antibody, V domains shown)", "VH": "EVQLVESGGGLVQPGGSLRLSCTASGFSLSNYVMNWVRQAPGKGLEWVGIIDSSGSTYYASWAKGRFTISRDTSKNTVYLQMNSLRAEDTAVYFCARGLYLWGQGTLVTVSS", "VL": "EIVMTQSPSTLSASVGDRVIITCQSSQSVYNNNLLAWYQQKPGKAPKLLIYYTSNLASGVPSRFSGSGSGAEFTLTISSLQPDDFATYYCHGGYNGNIYAFGQGTKLTVL", "notes": "MYT9345 variant, His at VL pos 91 (L3 01)"}, "B14": {"name": "MYT10942 (antibody, V domains shown)", "VH": "EVQLVESGGGLVQPGGSLRLSCTASGFSLSNYVMNWVRQAPGKGLEWVGIIDSSGSTYYASWAKGRFTISRDTSKNTVYLQMNSLRAEDTAVYFCARGLYLWGQGTLVTVSS", "VL": "EIVMTQSPSTLSASVGDRVIITCQSSQSVYNNNLLAWYQQKPGKAPKLLIYYTSNLASGVPSRFSGSGSGAEFTLTISSLQPDDFATYYCQGGHNGNIYAFGQGTKLTVL", "notes": "MYT9345 variant, His at VL pos 94 (L3 04)"}, "B15": {"name": "MYT10943 (antibody, V domains shown)", "VH": "EVQLVESGGGLVQPGGSLRLSCTASGFSLSNYVMNWVRQAPGKGLEWVGIIDSSGSTYYASWAKGRFTISRDTSKNTVYLQMNSLRAEDTAVYFCARGLYLWGQGTLVTVSS", "VL": "EIVMTQSPSTLSASVGDRVIITCQSSQSVYNNNLLAWYQQKPGKAPKLLIYYTSNLASGVPSRFSGSGSGAEFTLTISSLQPDDFATYYCQGGYHGNIYAFGQGTKLTVL", "notes": "MYT9345 variant, substitution at VL pos 95 (L3 05), no Ala mark"}, "B16": {"name": "MYT10944 (antibody, V domains shown)", "VH": "EVQLVESGGGLVQPGGSLRLSCTASGFSLSNYVMNWVRQAPGKGLEWVGIIDSSGSTYYASWAKGRFTISRDTSKNTVYLQMNSLRAEDTAVYFCARGLYLWGQGTLVTVSS", "VL": "EIVMTQSPSTLSASVGDRVIITCQSSQSVYNNNLLAWYQQKPGKAPKLLIYYTSNLASGVPSRFSGSGSGAEFTLTISSLQPDDFATYYCQGGYNHNIYAFGQGTKLTVL", "notes": "MYT9345 variant, His at VL pos 96 (L3 06)"}, "B17": {"name": "MYT10946 (antibody, V domains shown)", "VH": "EVQLVESGGGLVQPGGSLRLSCTASGFSLSNYVMNWVRQAPGKGLEWVGIIDSSGSTYYASWAKGRFTISRDTSKNTVYLQMNSLRAEDTAVYFCARGLYLWGQGTLVTVSS", "VL": "EIVMTQSPSTLSASVGDRVIITCQSSQSVYNNNLLAWYQQKPGKAPKLLIYYTSNLASGVPSRFSGSGSGAEFTLTISSLQPDDFATYYCQGGYNGNHYAFGQGTKLTVL", "notes": "MYT9345 variant, His at VL pos 98 (L3 08)"}, "B18": {"name": "MYT10949 (antibody, V domains shown)", "VH": "EVQLVESGGGLVQPGGSLRLSCTASGFSLSNYVMNWVRQAPGKGLEWVGIIDSSGSTYYASWAKGRFTISRDTSKNTVYLQMNSLRAEDTAVYFCARGLYLWGQGTLVTVSS", "VL": "EIVMTQSPSTLSASVGDRVIITCQSSQSVYNNNLLAWYQQKPGKAPKLLIYYTSNLASGVPSRFSGSGSGAEFTLTISSLQPDDFATYYCQGGYNGNIYAFGQGTKLEIK", "notes": "MYT9345 LC variant; substitution position printed as n/a"}, "B19": {"name": "MYT10950 (antibody, V domains shown)", "VH": "EVQLVESGGGLVQPGGSLRLSCTASGFSLSNYVMNWVRQAPGKGLEWVGIIDSSGSTYYASWAKGRFTISRDTSKNTVYLQMNSLRAEDTAVYFCARGLYLWGQGTLVTVSS", "VL": "EIVMTQSPSTLSASVGDRVIITCQSSQSVYNNNLLAWYQQKPGKAPKLLIYYTSNLASGVPSRFSGSGSGAEFTLTISSLQPDDFATYYCQGGYAGNIYAFGQGTKLTVL", "notes": "MYT9345 variant, Ala at VL pos 95 (L3 05)"}}}
{"target": "T1, Human PTK7 Protein, His Tag, Acro Biosystems (human, UniProt Q13308 31-704)", "T1 construct": "Bought recombinant protein; also called CCK4; not shown: His tag", "T1 sequence": "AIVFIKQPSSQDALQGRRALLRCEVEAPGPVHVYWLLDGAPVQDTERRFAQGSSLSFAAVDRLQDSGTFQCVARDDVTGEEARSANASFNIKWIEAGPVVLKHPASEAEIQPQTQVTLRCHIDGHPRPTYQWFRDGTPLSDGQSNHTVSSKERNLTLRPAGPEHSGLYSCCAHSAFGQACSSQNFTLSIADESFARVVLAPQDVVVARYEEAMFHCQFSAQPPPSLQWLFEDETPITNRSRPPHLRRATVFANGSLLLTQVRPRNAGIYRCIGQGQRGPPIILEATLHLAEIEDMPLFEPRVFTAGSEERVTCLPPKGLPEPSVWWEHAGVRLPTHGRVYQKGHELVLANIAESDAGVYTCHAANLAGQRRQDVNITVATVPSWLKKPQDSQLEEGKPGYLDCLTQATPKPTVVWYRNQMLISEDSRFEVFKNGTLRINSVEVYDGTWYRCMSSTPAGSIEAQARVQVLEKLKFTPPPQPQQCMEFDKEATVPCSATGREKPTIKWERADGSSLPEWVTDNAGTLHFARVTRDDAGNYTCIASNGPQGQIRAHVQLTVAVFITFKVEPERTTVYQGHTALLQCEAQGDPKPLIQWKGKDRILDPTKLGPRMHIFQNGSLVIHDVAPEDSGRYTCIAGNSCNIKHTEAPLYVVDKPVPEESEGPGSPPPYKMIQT", "assay": "BLI (Octet), antibody on anti-human Fc sensor, 50 nM PTK7 at pH 7.4, dissociation at pH 7.4 or 5.4; 1 = pH dependent binding relative to parent"}
{"binder": "B1", "binding result": "binds"}
{"binder": "B2", "binding result": "binds"}
{"binder": "B3", "binding result": "binds"}
{"binder": "B4", "binding result": "binds"}
{"binder": "B5", "binding result": "binds"}
{"binder": "B6", "binding result": "binds"}
{"binder": "B7", "binding result": "binds"}
{"binder": "B8", "binding result": "binds"}
{"binder": "B9", "binding result": "binds"}
{"binder": "B10", "binding result": "binds"}
{"binder": "B11", "binding result": "binds"}
{"binder": "B12", "binding result": "binds"}
{"binder": "B13", "binding result": "binds"}
{"binder": "B14", "binding result": "binds"}
{"binder": "B15", "binding result": "binds"}
{"binder": "B16", "binding result": "binds"}
{"binder": "B17", "binding result": "binds"}
{"binder": "B18", "binding result": "binds"}
{"binder": "B19", "binding result": "binds"}
